Data as given in PMC12748864, “Potent neutralization by antibodies targeting the MPXV A28 protein” (Nature Communications, 2025).

Columns and labels:
Conditions in all cases: both partners purified
[1] = molecular target: MPXV A28 (OPG153), residues 2-361 (Monkeypox virus, template GenBank …, UniProt A0A7H0DNC4); experiment: ELISA
[2] = molecular target: T1, VACV A26 (OPG153), residues 2-361 (Vaccinia virus strain IHDW, template …, UniProt P24758, strain); experiment: ELISA
T1 construct: also called VACV homolog of A28

[3] = molecular target: T2, VACV A26 head domain (amino acids 1-397), strain Western Reserve (Vaccinia virus (strain Western Reserve), UniProt P24758); experiment: crystal structure
T2 construct: also called residues 1-397 of A26

Chain of MPXV A28 (OPG153), residues 2-361 (A0A7H0DNC4 whole entry, looked up, the tested form may be a part): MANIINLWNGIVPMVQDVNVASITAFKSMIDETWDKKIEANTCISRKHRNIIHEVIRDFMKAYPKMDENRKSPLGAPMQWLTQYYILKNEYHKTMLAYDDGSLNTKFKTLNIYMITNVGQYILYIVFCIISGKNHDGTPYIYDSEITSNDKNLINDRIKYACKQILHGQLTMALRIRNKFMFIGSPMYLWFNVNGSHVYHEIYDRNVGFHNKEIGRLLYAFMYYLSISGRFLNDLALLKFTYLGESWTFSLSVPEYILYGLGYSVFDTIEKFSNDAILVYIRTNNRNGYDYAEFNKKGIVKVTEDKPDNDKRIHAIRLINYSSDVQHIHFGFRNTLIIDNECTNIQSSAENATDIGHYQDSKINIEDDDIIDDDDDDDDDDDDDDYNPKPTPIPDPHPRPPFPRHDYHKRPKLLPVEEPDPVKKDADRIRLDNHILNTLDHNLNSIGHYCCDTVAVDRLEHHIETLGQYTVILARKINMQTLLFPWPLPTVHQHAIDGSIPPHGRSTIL

B1: Germline 1 (germline-reverted 10M2146 / 10M2154) (antibody, V domains shown)
VH: EVQLVQSGAEVKKPGESLKISCKGSGYSFTSYWIGWVRQMPGKGLEWMGIIYPGDSDTRYSPSFQGQVTISADKSISTAYLQWSSLKASDTAMYYCARRPKYYYDSSGYYNWLDPWGQGTLVTVSS
VL: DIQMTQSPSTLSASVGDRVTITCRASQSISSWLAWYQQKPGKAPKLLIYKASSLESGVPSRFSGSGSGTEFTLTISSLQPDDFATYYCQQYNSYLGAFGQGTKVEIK
What does the source list for B1?
binding result [1]: binds; binding result [2]: binds

B2: mAb 10M2146 (human IgG1, anti-A28) (antibody, V domains shown)
VH: EVQLVQSGAEVKKPGESLKISCKGSGYSFTTHWIGWVRQMPGEGLEWLGIIYPGDSETKYSPSFQGQVTISVDKSINTAYLHWSSLKASDTAMYFCARRPKNYYDASGYYNWLDPWGQGTLVTVSS
VL: EIQMTQSPSTLSASVGDRVTITCRASQSLSTWLAWYQQKPGKAPKLLIYKASILESGVPSRFSASGSGTEFTLTISGLQPDDFATYYCQQYNSYLGAFGQGTKVEIK
Does B2 bind [1]?
Result: binds

Does B2 bind [2]?
Result: binds

B3: Fab 10M2146 (Fab, V domains shown)
VH: B2 VH
VL: B2 VL
notes: also called 10M2146 F(ab)
Does B3 bind [3]?
Result: binds
